Measurements as given in patent US20240279288A1 (ANYANG INSTITUTE OF SINO COTTON INDUSTRY INNOVATION, published 2024).

Legend:
[1] = target: GhMYC2 (cotton); assay: luciferase complementation in tobacco leaves (FIG. 5B)
Procedure: The constructed plasmids were then transformed into Agrobacterium GV3101 (pSoup-p19) (Shanghai Weidi Company, Cat. No.: AC1003), and placed successively on ice for 5 min, in liquid nitrogen for 5 min, in water bath at 37° C. for 5 min, and on ice for 5 min, and then LB liquid medium was added for cultivation at 28° C. and 220 rpm for 2-3 h, followed by plating onto LB solid plates containing corresponding antibiotics (kanamycin+rifampicin) for cultivation at 28° C. for 2-3 days. Positive monoclonal clones were picked for cultivation after colonies grown out. The corresponding NLUC and CLUC vectors then were mixed and injected into tobacco leaves (1 day in the dark/1 day in the light). Luciferase substrates were applied at the infected leaves before taking images and placed in a dark room for at least 6 min to quench fluorescence, followed by observation on the Nightowl-II LB983 instrument, using IndigoBasic software under the luciferase-5 min setting conditions.

[2] = target: T1, c-Myc (human, UniProt P01106 1-454, limits assumed); assay: luciferase complementation in tobacco leaves (FIG. 6F)
T1 construct: In pGADT7 (AD fusion) for yeast two hybrid, pCAMBIA-NLuc for LUC, pUC-SPYCE for BiFC; also called proto-oncogene c-Myc; full length of c-Myc
T1 sequence (P01106 whole entry, the tested form may be a part): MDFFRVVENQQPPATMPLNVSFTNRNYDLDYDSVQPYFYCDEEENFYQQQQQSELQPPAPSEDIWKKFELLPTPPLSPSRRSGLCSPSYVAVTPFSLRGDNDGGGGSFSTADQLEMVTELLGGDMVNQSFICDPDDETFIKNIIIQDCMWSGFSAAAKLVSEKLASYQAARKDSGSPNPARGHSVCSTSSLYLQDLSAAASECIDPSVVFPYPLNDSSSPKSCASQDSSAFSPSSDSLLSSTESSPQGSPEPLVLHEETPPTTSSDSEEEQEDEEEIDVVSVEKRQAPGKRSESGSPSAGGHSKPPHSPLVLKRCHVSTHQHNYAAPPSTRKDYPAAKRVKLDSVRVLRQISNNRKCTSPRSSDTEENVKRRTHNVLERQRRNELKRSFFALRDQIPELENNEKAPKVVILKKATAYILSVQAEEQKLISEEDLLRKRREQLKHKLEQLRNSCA
Description: Using the method of LUC experiment, c-Myc (NCBI accession number: NM_002467.6) was subcloned to pCAMBIA NLuc vector (Chen, H., et al. “Firefly Luciferase Complementation Imaging Assay for Protein-Protein Interactions in Plants.” Plant Physiology 146.2(2008):368-376.) between the KpnI and SalI cleavage sites, and GhJAZ1 (SEQ ID No. 39) was subcloned to pCAMBIA-CLuc vector (Chen, H., et al. “Firefly Luciferase Complementation Imaging Assay for Protein-Protein Interactions in Plants.” Plant Physiology 146.2(2008):368-376.) between the KpnI and SalI cleavage sites. The constructed recombinant plasmids verified to be positive by sequencing were transformed into Agrobacterium GV3101 (pSoup-p19) (Shanghai Weidi biology technology co., Ltd, Cat. No.: AC1003), which were co-transfected into tobacco leaves. 2-3 days after injection, the infected leaves coated with the fluorescent substrate were placed in a dark chamber of the instrument for at least 6 min before taking images to quench fluorescence, followed by observation on the Nightowl-II LB983 instrument, using IndigoBasic software under the luciferase-5 min setting conditions. Cultivation was performed after co-infection. If there is interaction, LUC luciferase is expressed, and luminescence is detected after substrate application. As shown in F in FIG. 6, GhJAZ1 interacts with c-Myc.

[3] = target: T2, GhCOI1 (cotton); assay: yeast two hybrid, JA-Ile in the medium
T2 chain: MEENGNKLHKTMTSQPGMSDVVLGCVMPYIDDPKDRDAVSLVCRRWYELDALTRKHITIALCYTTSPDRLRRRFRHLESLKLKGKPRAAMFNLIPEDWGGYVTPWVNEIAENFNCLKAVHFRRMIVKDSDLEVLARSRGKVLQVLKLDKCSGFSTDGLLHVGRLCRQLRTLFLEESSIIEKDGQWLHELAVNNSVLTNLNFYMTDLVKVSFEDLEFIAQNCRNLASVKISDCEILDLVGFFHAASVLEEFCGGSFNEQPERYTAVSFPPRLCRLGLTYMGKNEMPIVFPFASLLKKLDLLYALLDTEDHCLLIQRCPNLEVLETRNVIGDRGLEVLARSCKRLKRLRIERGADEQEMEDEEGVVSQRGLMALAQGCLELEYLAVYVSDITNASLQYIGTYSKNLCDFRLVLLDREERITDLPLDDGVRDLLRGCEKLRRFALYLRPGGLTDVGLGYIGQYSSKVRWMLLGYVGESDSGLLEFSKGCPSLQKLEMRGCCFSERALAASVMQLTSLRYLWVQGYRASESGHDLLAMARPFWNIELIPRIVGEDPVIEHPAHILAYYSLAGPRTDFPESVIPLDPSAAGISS
Procedure: The study on Arabidopsis had shown that the inhibition of JAZ protein on JA signaling was mainly achieved by inhibiting the transcription factor function of MYC, which had been experimentally verified by us in cotton. Based on the phylogenetic tree of Arabidopsis and cotton JAZs, we screened 6 cotton JAZs (GhJAZ1, GhJAZ7, GhJAZ9, GhJAZ10, GhJAZ11 and GhJAZ31), which were analyzed with GhMYC2, GhNINJA, GhTPL, GhHDA6, and GhCOI1 for yeast two hybrid. The amino acid sequence of GhJAZ1 was set forth in SEQ ID No. 4, and the corresponding encoding gene sequence was set forth in SEQ ID No. 39; the amino acid sequence of GhJAZ7 was set forth in SEQ ID No. 7, and the corresponding encoding gene sequence was set forth in SEQ ID No. 42; the amino acid sequence of GhJAZ9 was set forth in SEQ ID No. 2, and the corresponding encoding gene sequence was set forth in SEQ ID No. 37; the amino acid sequence of GhJAZ10 was set forth in SEQ ID No. 3, and the corresponding encoding gene sequence was set forth in SEQ ID No. 38; the amino acid sequence of GhJAZ11 was set forth in SEQ ID No. 5, and the corresponding encoding gene sequence was set forth in SEQ ID No. 40; and the amino acid sequence of GhJAZ31 was set forth in SEQ ID No. 9, and the corresponding encoding gene sequence was set forth in SEQ ID No. 44. […]

[4] = target: T3, c-Myc-150aa (human, UniProt P01106 1-150); assay: luciferase complementation (FIG. 13 E)
T3 construct: Also tested by LUC, for which the construct is not described; also called first 150 amino acids truncated c-Myc
T3 sequence (P01106 1-150 limits assumed): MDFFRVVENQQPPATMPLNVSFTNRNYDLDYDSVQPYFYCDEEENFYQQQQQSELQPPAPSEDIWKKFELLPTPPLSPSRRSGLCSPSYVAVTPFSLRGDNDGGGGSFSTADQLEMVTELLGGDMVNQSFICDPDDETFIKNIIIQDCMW

[5] = target: T4, c-Myc-215aa (human, UniProt P01106 1-215); assay: luciferase complementation (FIG. 13 E)
T4 construct: Also tested by LUC, for which the construct is not described
T4 sequence (P01106 1-215 limits assumed): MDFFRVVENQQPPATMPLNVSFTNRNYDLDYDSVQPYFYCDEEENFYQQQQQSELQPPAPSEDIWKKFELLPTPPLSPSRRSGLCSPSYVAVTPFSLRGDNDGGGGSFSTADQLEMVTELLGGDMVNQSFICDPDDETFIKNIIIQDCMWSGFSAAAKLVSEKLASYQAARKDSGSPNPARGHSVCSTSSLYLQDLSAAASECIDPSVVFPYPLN

[6] = target: T5, GhHDA6 (cotton); assay: yeast two hybrid
T5 chain: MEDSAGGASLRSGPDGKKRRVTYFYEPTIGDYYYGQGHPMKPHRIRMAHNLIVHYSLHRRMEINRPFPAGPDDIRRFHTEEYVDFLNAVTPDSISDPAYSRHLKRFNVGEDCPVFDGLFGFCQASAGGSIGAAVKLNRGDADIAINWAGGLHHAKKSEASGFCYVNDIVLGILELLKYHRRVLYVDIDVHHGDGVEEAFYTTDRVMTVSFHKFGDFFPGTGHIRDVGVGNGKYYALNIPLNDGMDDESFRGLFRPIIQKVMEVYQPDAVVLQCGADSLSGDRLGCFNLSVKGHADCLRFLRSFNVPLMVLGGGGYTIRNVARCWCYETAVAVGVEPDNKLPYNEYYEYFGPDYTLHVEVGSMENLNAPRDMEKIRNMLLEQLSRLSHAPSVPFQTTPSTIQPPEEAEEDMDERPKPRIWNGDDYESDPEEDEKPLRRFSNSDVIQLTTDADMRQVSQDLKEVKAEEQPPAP

[7] = target: T6, GhNINJA (cotton); assay: yeast two hybrid
T6 chain: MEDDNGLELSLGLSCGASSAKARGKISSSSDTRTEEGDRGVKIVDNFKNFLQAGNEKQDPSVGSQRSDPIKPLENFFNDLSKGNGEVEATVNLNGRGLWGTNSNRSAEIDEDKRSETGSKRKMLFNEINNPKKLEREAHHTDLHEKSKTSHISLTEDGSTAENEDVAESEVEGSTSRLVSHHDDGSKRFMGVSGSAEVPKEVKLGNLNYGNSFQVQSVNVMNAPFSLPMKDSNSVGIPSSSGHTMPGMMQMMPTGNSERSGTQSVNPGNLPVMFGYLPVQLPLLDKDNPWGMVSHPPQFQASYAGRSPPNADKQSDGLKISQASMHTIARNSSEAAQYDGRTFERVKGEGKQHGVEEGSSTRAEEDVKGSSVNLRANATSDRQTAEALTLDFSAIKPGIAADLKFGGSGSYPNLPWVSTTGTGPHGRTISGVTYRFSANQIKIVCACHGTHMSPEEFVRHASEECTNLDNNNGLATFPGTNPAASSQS

[8] = target: T7, GhTPL (cotton); assay: yeast two hybrid
T7 chain: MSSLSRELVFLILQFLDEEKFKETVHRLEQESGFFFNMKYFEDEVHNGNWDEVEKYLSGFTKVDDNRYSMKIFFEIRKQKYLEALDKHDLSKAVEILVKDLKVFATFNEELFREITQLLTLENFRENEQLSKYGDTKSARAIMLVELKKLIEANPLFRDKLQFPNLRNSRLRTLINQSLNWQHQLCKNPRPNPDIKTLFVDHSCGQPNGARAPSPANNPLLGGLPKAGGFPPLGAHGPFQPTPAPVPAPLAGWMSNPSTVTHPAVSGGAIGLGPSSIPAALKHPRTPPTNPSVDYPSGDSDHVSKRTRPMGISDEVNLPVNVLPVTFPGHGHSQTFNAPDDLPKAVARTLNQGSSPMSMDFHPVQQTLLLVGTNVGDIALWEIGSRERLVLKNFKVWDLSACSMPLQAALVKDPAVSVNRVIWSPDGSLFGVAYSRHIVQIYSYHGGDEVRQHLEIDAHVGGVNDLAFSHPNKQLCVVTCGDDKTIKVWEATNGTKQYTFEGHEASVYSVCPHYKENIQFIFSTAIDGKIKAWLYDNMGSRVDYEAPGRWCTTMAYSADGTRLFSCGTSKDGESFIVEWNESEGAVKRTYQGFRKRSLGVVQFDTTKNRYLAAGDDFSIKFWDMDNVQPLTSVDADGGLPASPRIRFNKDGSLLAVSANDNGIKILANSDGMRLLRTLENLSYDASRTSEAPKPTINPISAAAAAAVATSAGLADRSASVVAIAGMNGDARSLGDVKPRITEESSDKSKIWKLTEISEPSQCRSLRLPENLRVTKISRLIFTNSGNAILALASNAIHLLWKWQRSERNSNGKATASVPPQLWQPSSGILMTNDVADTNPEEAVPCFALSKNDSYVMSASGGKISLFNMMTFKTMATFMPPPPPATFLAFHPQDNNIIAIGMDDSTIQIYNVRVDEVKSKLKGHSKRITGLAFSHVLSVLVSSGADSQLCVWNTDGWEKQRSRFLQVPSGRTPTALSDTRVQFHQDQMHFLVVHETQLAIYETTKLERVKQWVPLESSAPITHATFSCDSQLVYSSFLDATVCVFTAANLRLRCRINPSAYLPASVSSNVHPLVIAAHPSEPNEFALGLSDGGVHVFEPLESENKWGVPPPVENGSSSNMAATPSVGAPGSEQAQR

[9] = target: T8, uPAR-D1D2 (Homo sapiens (Human), UniProt Q03405 23-335, limits assumed); assay: yeast two hybrid
T8 construct: It is tied to 'D3 domain deficient uPAR' by its name only; also called D3 domain deficient uPAR
T8 sequence (Q03405 other isoform, or with tags, fused parts or gaps limits assumed): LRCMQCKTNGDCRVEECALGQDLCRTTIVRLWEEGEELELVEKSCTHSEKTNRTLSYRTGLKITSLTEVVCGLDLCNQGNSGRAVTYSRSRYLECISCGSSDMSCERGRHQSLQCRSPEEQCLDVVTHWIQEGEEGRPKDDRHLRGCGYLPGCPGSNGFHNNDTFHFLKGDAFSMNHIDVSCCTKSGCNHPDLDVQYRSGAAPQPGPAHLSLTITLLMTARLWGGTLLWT

[10] = target: T9, NMYC (human, UniProt P04198 1-464); assay: yeast two hybrid
T9 construct: In pGADT7 (AD fusion) for yeast two hybrid
T9 sequence (looked up): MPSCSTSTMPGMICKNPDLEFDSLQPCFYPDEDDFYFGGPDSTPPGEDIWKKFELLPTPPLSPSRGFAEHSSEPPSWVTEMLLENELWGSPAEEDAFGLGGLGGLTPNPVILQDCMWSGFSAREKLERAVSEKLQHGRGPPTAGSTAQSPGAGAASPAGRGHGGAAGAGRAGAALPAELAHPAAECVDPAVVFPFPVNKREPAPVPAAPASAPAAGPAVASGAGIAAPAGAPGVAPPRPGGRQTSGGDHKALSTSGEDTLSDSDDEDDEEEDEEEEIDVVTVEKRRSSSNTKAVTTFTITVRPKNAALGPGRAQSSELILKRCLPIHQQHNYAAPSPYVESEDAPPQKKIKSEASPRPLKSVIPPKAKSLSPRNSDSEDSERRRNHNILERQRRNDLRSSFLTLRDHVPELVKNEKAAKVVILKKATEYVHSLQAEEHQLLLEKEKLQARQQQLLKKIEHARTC

Sequence of GhMYC2 (cotton) (chain, as listed by the source limits assumed): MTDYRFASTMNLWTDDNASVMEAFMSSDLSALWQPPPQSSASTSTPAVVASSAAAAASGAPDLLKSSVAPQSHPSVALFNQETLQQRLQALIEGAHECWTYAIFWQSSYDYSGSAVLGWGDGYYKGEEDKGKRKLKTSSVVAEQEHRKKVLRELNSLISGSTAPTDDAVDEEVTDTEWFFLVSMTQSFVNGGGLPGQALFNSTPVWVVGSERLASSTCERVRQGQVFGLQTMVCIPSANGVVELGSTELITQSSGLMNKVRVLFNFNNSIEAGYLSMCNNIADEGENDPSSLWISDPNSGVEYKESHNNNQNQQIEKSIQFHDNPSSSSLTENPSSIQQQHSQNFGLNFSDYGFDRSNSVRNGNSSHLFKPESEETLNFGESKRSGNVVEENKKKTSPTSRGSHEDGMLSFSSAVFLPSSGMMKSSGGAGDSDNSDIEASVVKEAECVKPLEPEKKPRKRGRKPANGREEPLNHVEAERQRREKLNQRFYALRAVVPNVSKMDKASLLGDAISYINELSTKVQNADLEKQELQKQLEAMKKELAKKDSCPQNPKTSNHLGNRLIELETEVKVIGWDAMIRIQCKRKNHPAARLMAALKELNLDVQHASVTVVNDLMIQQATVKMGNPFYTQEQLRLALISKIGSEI

- binding result [1]: binds
- binding result [2]: binds
- binding result [3]: binds
- binding result [4]: binds
- binding result [5]: binds
- binding result [6]: binds
- binding result [7]: binds
- binding result [8]: binds
- binding result [9]: no binding
- binding result [10]: binds
B1: GhJAZ1 (other)
chain: MSSCSESTAMKPARSPEKPSFAQTCNLLSQYLKEKGSFGDLSLGMTCNVEANGTPVVPPPTMNLFPLNDKSDDVCGRNGGNPKNLTSMDLFPQQAGLASKDDSPNKLEPQTAPMTIFYGGQVIVFNDFPANKAKEIMLLASNSSSQSNNSFNPIPFTSSIARSPIESSIGVPPTSKPVHPAQRAVPGDLPIARRASLHRFLEKRKDRITAKAPYQINNSAAAPSLSGDNKSWLGLAAQSP
notes: In yeast two hybrid it was expressed from pGBKT7 (BD fusion), in the luciferase experiment from pCAMBIA-CLuc, in BiFC from pUC-SPYNE; also called cotton JAZ1
